Results: the supplement of paper PMC7877785
± gives the uncertainty stated by the source.

Assay: self-splicing fitness, log relative to wild type (ln ratio); higher = more splicing; Tetrahymena group I intron in knt gene, E. coli kanamycin selection, DiMSum; sequences stand for … in CUCUCU…GGAGGGAAAAGUUAUCAGGCAUGCACCUGGUAGCUAGUCUUUAAACCAAUAGAUUGCAUCGGUUUAAAAGGCAAGACCGUCAAAUUGCGGGAAAGGGGUCAACAGCCGUUCAGUACCAAGUCUCAGGGGAAACUUUGAGAUGGCCUUGCAAAGGGUAUGGUAAUAAGCUGACGGACAUGGUCCUAACCACGCAGCCAAGUCCUAAGUCAACAGAUCUUCUGUUGAUAUGGAUGCAGUUCACAGACUAAAUGUCGGUCGGGGAAGAUGUAUUCUUCUCAUAAGAUAUAGUCGGACCUCUCCUUAAUGGGAGCUAGCGGAUGAAGUGAUGCAACACUGGAGCCGCUGGGAACUAAUUUGUAUGCGAAAGUAUAUUGAUUAGUUUUGGAGUACUCGUGGUCG
Procedure, shortened: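 Library with all eight P1ex-region intron nucleotides randomised, intron inside the knt kanamycin-resistance gene on pET-22b(+), in E. coli BL21(DE3). Cells grew overnight at 37°C or 30°C on LB agar with or without 25 μg/mL kanamycin (plus 100 μg/mL carbenicillin, 50 μM IPTG, 0.2% rhamnose), in six replicate transformations. Pooled colonies were amplicon-sequenced on Illumina HiSeq 2500. DiMSum fitness is the error-weighted combination of wild-type-normalised replicate fold changes, kanamycin versus none.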

Sequence	self-splicing fitness (ln) (30 °C)	self-splicing fitness (ln) (37 °C)
CAUGAGCAAUAUUACGCAAA	-3.92 ± 0.38	-1.97 ± 0.24
CAUGAGCAAUAUUACGCAUU	-2.88 ± 0.19	-2.03 ± 0.24
CAUGAGCAAUAUUACGCCAG	-1.94 ± 0.19	-1.84 ± 0.24
CAUGAGCAAUAUUACGCGCG	-1.29 ± 0.15	0.0218 ± 0.14
CAUGAGCAAUAUUACGCUAG	-3.07 ± 0.21	-2.82 ± 0.23
CAUGAGCAAUAUUACGCUCC		-1.38 ± 0.48
CAUGAGCAAUAUUACGCUGA	-3.24 ± 0.18	-3.09 ± 0.23
CAUGAGCAAUAUUACGGGGU	-3.25 ± 0.3	-3.38 ± 0.33
CAUGAGCAAUAUUACGGUGG	-1.49 ± 0.078	-0.665 ± 0.088
CAUGAGCAAUAUUACGGUUC	-3.65 ± 0.46	-2.13 ± 0.38
CAUGAGCAAUAUUACGUCCU	-4.2 ± 0.32	-1.88 ± 0.2
CAUGAGCAAUAUUACGUCUA	-2.57 ± 0.17	-2.28 ± 0.21
CAUGAGCAAUAUUACGUGAA	-3.86 ± 0.3	-2.53 ± 0.29
CAUGAGCAAUAUUACGUGCU	-3.6 ± 0.38	-2.39 ± 0.32
CAUGAGCAAUAUUACGUGUU	-3.85 ± 0.16	-2.31 ± 0.15
CAUGAGCAAUAUUACGUUGG	-2.69 ± 0.17	-1.81 ± 0.15
CAUGAGCAAUAUUACGUUUU	-3.66 ± 0.21	-2.86 ± 0.24
CAUUAGCAAUAUUACGAAUA	-2.12 ± 0.14	-0.64 ± 0.13
CAUUAGCAAUAUUACGAGUU	-3.7 ± 0.17	-2.67 ± 0.18
CAUUAGCAAUAUUACGAUAA	-2.24 ± 0.2	-1.75 ± 0.23
CAUUAGCAAUAUUACGAUCG	0.173 ± 0.082	0.274 ± 0.12
CAUUAGCAAUAUUACGAUUC	-2.1 ± 0.18	-0.901 ± 0.17
CAUUAGCAAUAUUACGCCUA		-1.73 ± 0.31
CAUUAGCAAUAUUACGCGCU	-2.9 ± 0.21	-1.51 ± 0.26

Sequence	self-splicing fitness (ln) (30 °C)	self-splicing fitness (ln) (37 °C)
CAUUAGCAAUAUUACGCGUG	-3.16 ± 0.15	-2.89 ± 0.24
CAUUAGCAAUAUUACGCUCU	-2.64 ± 0.2	-1.43 ± 0.22
CAUUAGCAAUAUUACGGAGG	-0.36 ± 0.11	-0.878 ± 0.16
CAUUAGCAAUAUUACGGCUC	-3.78 ± 0.28	-1.39 ± 0.18
CAUUAGCAAUAUUACGGUAC	-1.9 ± 0.16	-2.07 ± 0.46
CAUUAGCAAUAUUACGGUUG	-1.63 ± 0.09	-0.664 ± 0.11
CAUUAGCAAUAUUACGUAUC	-3.14 ± 0.31	-2.26 ± 0.28
CAUUAGCAAUAUUACGUCAU	-4.39 ± 0.3	-2.48 ± 0.21
CAUUAGCAAUAUUACGUCGA	-2.75 ± 0.14	-2.05 ± 0.12
CAUUAGCAAUAUUACGUGCU	-4.27 ± 0.24	-2.36 ± 0.27
CCAAAGCAAUAUUACGAAGU	-3.04 ± 0.15	-2.42 ± 0.2
CCAAAGCAAUAUUACGAAUA	-3.55 ± 0.32	-1.51 ± 0.18
CCAAAGCAAUAUUACGACAU	-3.658 ± 0.02	-2.82 ± 0.037
CCAAAGCAAUAUUACGACGC	-3.71 ± 0.35	
CCAAAGCAAUAUUACGAGGG	-3.76 ± 0.22	-1.56 ± 0.16
CCAAAGCAAUAUUACGAGGU	-4.24 ± 0.2	-1.71 ± 0.13
CCAAAGCAAUAUUACGAUAA	-3 ± 0.17	-0.828 ± 0.18
CCAAAGCAAUAUUACGAUAG	-0.734 ± 0.086	0.171 ± 0.11
CCAAAGCAAUAUUACGCAAA	-3.41 ± 0.25	-1.72 ± 0.17
CCAAAGCAAUAUUACGCACA	-3.55 ± 0.34	-1.66 ± 0.32
CCAAAGCAAUAUUACGCCAA	-2.73 ± 0.2	-1.96 ± 0.23
CCAAAGCAAUAUUACGCCGG	-5.01 ± 0.41	-2.38 ± 0.2
CCAAAGCAAUAUUACGCGCC	-3.43 ± 0.21	-2.71 ± 0.27
CCAAAGCAAUAUUACGCGGG	-4.4 ± 0.42	-1.38 ± 0.16
